Consider four molecules from US20030165506A1 (VLAAMS INTERUNIVERSITAIR INSTITUUT VOOR BIOTECHNOLOGIE VZW, published 2003).

The chains are these.
B1: amino terminal part of β-catenin, prey fusion of plasmid pGAD424-ATβctn (other, UniProt P35222 14-172, looked up)
chain: MEPDRKAAVSHWQQQSYLDSGIHSGATTTAPSLSGKGNPEEEDVDTSQVLYEWEQGFSQSFTQEQVADIDGQYAMTRAQRVRAAMFPETLDEGMQIPSTQFDAAHPTNVQRLAEPSQMLKHAVVNLINYQDDAELATRAIPELTKLLNDEDQVVVNKAA
notes: domain: amino terminal fragment 239-717; also called amino terminal fragment 239-717 of β-catenin; not shown: fusion partner encoded by the prey vector pGAD424 (Clontech)
B3: human αT-catenin fused to the GAL4 binding domain, bait plasmid pGBKT7-ATCTN(179-3024) (other, not shown: large carriers)
chain: SAETPITLNIDPQDLQVQTFTVEKLLEPLIIQVTTLVNCPQNPSSRKKGRSKRASVLLASVEEATWNLLDKGEKIAQEATVLKDELTASLEEVRKESEALKVSAERFTDDPCFLPKREAVVQAARALLAAVTRLLILADMIDVMCLLQHVSAFQRTFETLKNVANKSDLQKTYQKLGKELENLDYLAFKRQQDLKSPNQRDEIAGARASLKENSPLLHSICSACLEHSDVASLKASKDTVCEEIQNALNVISNASQGIQNMTTPPEPQAATLGSALDELENLIVLNPLTVTEEEIRPSLEKRLEAIISGAALLADSSCTRDLHRERIIAECNAIRQALQDLLSEYMNNAGKKERSNTLNIALDNMCKKTRDLRRQLRKAIIDHVSDSFLDTTVPLLVLIEAAKNGREKEIKEYAAIFHEHTSRLVEVANLACSMSTNEDGIKIVKIAANHLETLCPQIINAALALAARPKSQAVKNTMEMYKRTWENHIHVLTEAVDDITSIDDFLAVSESHILEDVNKCIIALRDQDADNLDRAAGAIRGRAARVAHIVTGEMDSYEPGAYTEGVMRNVNFLTSTVIPEFVTQVNVALEALSKSSLNVLDDNQFVDISKKIYDTIHDIRCSVMMIRTPEELEDVSDLEEEHEVRSHTSIQTEGKTDRAKMTQLPEAEKEKIAEQVADFKKVKSKLDAEIEIWDDTSNDIIVLAKNMCMIMMEMTDFTRGKGPLKHTTDVIYAAKMISESGSRMDVLARQIANQCPDPSCKQDLLAYLEQIKFYSHQLKICSQVKAEIQNLGGELIMSALDSVTSLIQAAKNLMNAVVQTVKMSYIASTKIIRIQSPAGPRHPVVMWRMKAPAKKPLIKREKPEETCAAVRRGSAKKKIHPLQVMSEFRGRQIY

In assay [1] the target is B3. Description: yeast two-hybrid, Y190 strain, CPRG quantification (FIG. 7B).
Description: (§1) The yeast strain Y190 (Matchmaker, Clontech, CA), which contains GAL4 promoter driven His and β-galactosidase reporters, was used for cotransformation of pGBT9 bait and pGAD424 prey plasmids, comprising the cloned inserts of interest.
To assay the strength of interaction between α-catenins and β-catenin, β-galactosidase activity was assayed using chlorophenol red-β-D-galactopyranoside (CPRG, Boehringer Mannheim, Del.) as a substrate, according to the provided protocol (Clontech Yeast Protocols Handbook).
The target of assay [2] is T1, human α-catulin fused to the GAL4 DNA binding domain, bait plasmid pGBT9-αctl(50-2264) (human, UniProt P04386 1-147; Q9UBT7 1-734).
T1 construct: Limits are printed only as cDNA positions (50-2264); also called α-catulin bait fusion
Description: yeast two-hybrid, cotransformation of bait and prey, X-GAL staining (FIG. 7A).
Description: as §1

In assay [3] the target is T2, human αT-catenin fused to the GAL4 binding domain, bait plasmid pGBT9-ATCTN(179-2860) (human, UniProt P04386 1-147 (Saccharomyces cerevisiae entry)).
T2 construct: also called αT-catenin bait fusion; hαT-catenin
Put plainly: yeast two-hybrid, X-GAL staining of cotransformants.
Description: (§2) (A) Introduction in the two-hybrid system by cotransformation of the respective fusion constructs. […] (B) Quantification of interaction strength between β-catenin and either αE- or αT-catenin in the yeast two-hybrid system. β-Galactosidase activity was measured using CPRG as a substrate.

Assay [4] addresses T3, human αE-catenin fused to the GAL4 DNA binding domain, bait plasmid pGBT9-αECTN (human, UniProt P04386 1-147; P35221 2-906).
T3 construct: no residue limits are printed; also called αE-catenin bait fusion
The description is as above.
Description: as §2

Assay [5] addresses T2, human αT-catenin fused to the GAL4 …. Description: yeast two-hybrid, X-GAL staining of cotransformants (FIG. 7A).
Description: as §1
In assay [6] the target is B1. Description: cell-based or functional assay.
Assay [7] has as its target T4, β-catenin prey fusion of plasmid pGAD424-βctn (UniProt P35222 14-172).
T4 sequence (looked up): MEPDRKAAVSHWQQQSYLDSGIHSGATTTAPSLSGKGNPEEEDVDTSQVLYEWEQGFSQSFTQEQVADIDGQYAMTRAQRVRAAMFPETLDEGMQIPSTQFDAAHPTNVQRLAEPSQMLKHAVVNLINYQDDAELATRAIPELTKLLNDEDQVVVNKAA
Description: cell-based or functional assay.

Regarding B1, the binding result in assay [1] is listed as “binds”; in assay [2] it was “no binding”; in assay [3], “binds”; in assay [4] it was “binds”.

B2: nearly full-length human plakoglobin, prey fusion of plasmid pGAD424-Plakoglobin(227-2340) (other, UniProt P14923 37-740, looked up)
chain: VSSKGIMEEDEACGRQYTLKKTTTYTQGVPPSQGDLEYQMSTTARAKRVREAMCPGVSGEDSSLLLATQVEGQATNLQRLAEPSQLLKSAIVHLINYQDDAELATRALPELTKLLNDEDPVVVTKAAMIVNQLSKKEASRRALMGSPQLVAAVVRTMQNTSDLDTARCTTSILHNLSHHREGLLAIFKSGGIPALVRMLSSPVESVLFYAITTLHNLLLYQEGAKMAVRLADGLQKMVPLLNKNNPKFLAITTDCLQLLAYGNQESKLIILANGGPQALVQIMRNYSYEKLLWTTSRVLKVLSVCPSNKPAIVEAGGMQALGKHLTSNSPRLVQNCLWTLRNLSDVATKQEGLESVLKILVNQLSVDDVNVLTCATGTLSNLTCNNSKNKTLVTQNSGVEALIHAILRAGDKDDITEPAVCALRHLTSRHPEAEMAQNSVRLNYGIPAIVKLLNQPNQWPLVKATIGLIRNLALCPANHAPLQEAAVIPRLVQLLVKAHQDAQRHVAAGTQQPYTDGVRMEEIVEGCTGALHILARDPMNRMEIFRLNTIPLFVQLLYSSVENIQRVAAGVLCELAQDKEAADAIDAEGASAPLMELLHSRNEGTATYAAAVLFRISEDKNPDYRKRVSVELTNSLFKHDPAAWEAAQSMIPINEPYGDDMDATYRPMYSSDVPLDPLEMHMDMDGDYPIDTYSDGLRPPYPTA
notes: domain: nearly full-length plakoglobin; not shown: fusion partner encoded by the prey vector pGAD424 (Clontech)
With B2, the binding result in assay [5] was “binds”. Regarding B3, the “β-Galactosidase activity measured using CPRG as a substrate, yeast two-hybrid, Y190 yeast strain” value in assay [6] is ~4 fold against αE-catenin/β-catenin (pGBT9-αEctn plus pGAD424-ATβctn).

B4: human αT-catenin fused to the LexA binding domain, bait plasmid pLexMG-ATCTN(179-2860) (other)
chain: MKALTARQQEVFDLIRDHISQTGMPPTRAEIAQRLGFRSPNAAEEHLKALARKGVIEIVSGASRGIRLLQEEEEGLPLVGRVAAGEPLLAQQHIEGHYQVDPSLFKPNADFLLRVSGMSMKDIGIMDGDLLAVHKTQDVRNGQVVVARIDDEVTVKRLKKQGNKVELLPENSEFKPIVVDLRQQSFTIEGLAVGVIRNGDWLSAETPITLNIDPQDLQVQTFTVEKLLEPLIIQVTTLVNCPQNPSSRKKGRSKRASVLLASVEEATWNLLDKGEKIAQEATVLKDELTASLEEVRKESEALKVSAERFTDDPCFLPKREAVVQAARALLAAVTRLLILADMIDVMCLLQHVSAFQRTFETLKNVANKSDLQKTYQKLGKELENLDYLAFKRQQDLKSPNQRDEIAGARASLKENSPLLHSICSACLEHSDVASLKASKDTVCEEIQNALNVISNASQGIQNMTTPPEPQAATLGSALDELENLIVLNPLTVTEEEIRPSLEKRLEAIISGAALLADSSCTRDLHRERIIAECNAIRQALQDLLSEYMNNAGKKERSNTLNIALDNMCKKTRDLRRQLRKAIIDHVSDSFLDTTVPLLVLIEAAKNGREKEIKEYAAIFHEHTSRLVEVANLACSMSTNEDGIKIVKIAANHLETLCPQIINAALALAARPKSQAVKNTMEMYKRTWENHIHVLTEAVDDITSIDDFLAVSESHILEDVNKCIIALRDQDADNLDRAAGAIRGRAARVAHIVTGEMDSYEPGAYTEGVMRNVNFLTSTVIPEFVTQVNVALEALSKSSLNVLDDNQFVDISKKIYDTIHDIRCSVMMIRTPEELEDVSDLEEEHEVRSHTSIQTEGKTDRAKMTQLPEAEKEKIAEQVADFKKVKSKLDAEIEIWDDTSNDIIVLAKNMCMIMMEMTDFTRGKGPLKHTTDVIYAAKMISESGSRMDVLARQIANQCPDPSCKQDLLAYLEQIKFYSHQLKICSQVKAEIQNLGGELIMSALDSVTSLIQAAKNLMNAVVQTVKMSYIASTKIIRIQSPAGPRHPVVMWRMKAPAKKPLIKREKPEETCAAVRRGSAKKKIHPLQVMSEFRGRQIY
Turning to B4, the “β-Galactosidase activity measured using CPRG as a substrate, yeast two-hybrid, L40 yeast strain” value in assay [7] is ~4 fold against αE-catenin/β-catenin (pLexMG-αEctn plus pGAD424-βctn).
